Assay [1] deals with BG505 DS-SOSIP.664 stabilized soluble HIV-1 Env trimer (HIV-1 (clade A, strain BG505)) (UniProt Q2N0S6). Briefly: negative stain electron microscopy.
The target of assay [2] is BG505 Env (unmutated), on pseudovirus (HIV-1 (clade A, strain BG505)) (UniProt Q2N0S6).
Assay [3] concerns the target CH505 Env, on pseudovirus (HIV-1 (clade C, isolate CH505)).

The values that follow come from article PMC12335366.

In the case of mature CH103 Fab, the stoichiometry N (Fabs per trimer) in assay [1] came out at 2. In assay [1], “CH103 KN Fab (partially UCA-reverted CH103 mutant, E75K and D76N)” came in with a stoichiometry N (Fab per trimer) of 1.

B1: CH103 KN antibody (IgG; E75K and D76N in the heavy chain) (antibody, V domains shown)
V domain 1: QVQLQESGPGVVKSSETLSLTCTVSGGSMGGTYWSWLRLSPGKGLEWIGYIFHTGETNYSPSLKGRVSISVDTSKNQFSLRLRSVTAADTAVYFCASLPRGQLVNAYFRNWGRGSLVSVTA
V domain 2: SYELTQPPSVSVSPGQTATITCSGASTNVCWYQVKPGQSPEVVIFENYKRPSGIPDRFSGSKSGSTATLTIRGTQAIDEADYYCQVWDSFSTFVFGSGTQVTVL
For the molecule B1, the neutralisation of BG505 pseudovirus (TZM-bl), decrease against mature CH103 in assay [2] is above 3 fold. Moreover, in assay [3], the neutralisation of CH505 pseudovirus (TZM-bl), decrease against mature CH103 was above 3 fold.
